Each block holds one molecule with its values, some of them ahead of it.
Columns and labels:
[1] = tested on: SK-MEL-23 melanoma cell line; assay: RIZ D283 allele transcript expression after demethylating agent; assay type: cell-based, human; settings: 3 uM, cultured 3 to 6 days
Description: RNA samples from the 20 heterozygous melanoma cell lines were sequenced to determine if both alleles were transcribed in the cell or if only one allele was transcribed (ie. monoallelic expression). Sequencing was performed on DNA products produced by reverse transcription-PCR (RT-PCR) amplification using specific RIZ primers. RT-PCR amplification was performed according to the manufacturer's instructions (GeneAmp RNA PCR kit; Perkin Elmer). A 640 bp fragment encoding RIZ exons 5-7 was obtained from transcription of 1 μg of total RNA using the SSO 82 primer (SEQ ID NO: 93) and PCR amplification using the SSO 24 primer (5′[…]3′; SEQ ID NO: 106) and the SSO 82 primer (SEQ ID NO: 93). The amplified fragment was gel purified and sequenced using primer SSO 82 and a CircumVent™ Thermal Cycle DNA Sequencing kit (New England Biolabs; Beverly Mass.). The sequencing products were analyzed on a […] sequencing gel.
The SK-MEL-23 melanoma cell line was cultured for 3 to 6 days with 3 uM of the demethylating agent 5-azacytidine.

full length RIZ = molecular target: T1, full length RIZ (Rattus norvegicus, UniProt Q63755); assay: RIZ homo-oligomer formation; assay type: binding
T1 construct: made in house; host or cells: in vitro translation (35S label; method not repeated for this protein)
T1 sequence (Q63755 whole entry): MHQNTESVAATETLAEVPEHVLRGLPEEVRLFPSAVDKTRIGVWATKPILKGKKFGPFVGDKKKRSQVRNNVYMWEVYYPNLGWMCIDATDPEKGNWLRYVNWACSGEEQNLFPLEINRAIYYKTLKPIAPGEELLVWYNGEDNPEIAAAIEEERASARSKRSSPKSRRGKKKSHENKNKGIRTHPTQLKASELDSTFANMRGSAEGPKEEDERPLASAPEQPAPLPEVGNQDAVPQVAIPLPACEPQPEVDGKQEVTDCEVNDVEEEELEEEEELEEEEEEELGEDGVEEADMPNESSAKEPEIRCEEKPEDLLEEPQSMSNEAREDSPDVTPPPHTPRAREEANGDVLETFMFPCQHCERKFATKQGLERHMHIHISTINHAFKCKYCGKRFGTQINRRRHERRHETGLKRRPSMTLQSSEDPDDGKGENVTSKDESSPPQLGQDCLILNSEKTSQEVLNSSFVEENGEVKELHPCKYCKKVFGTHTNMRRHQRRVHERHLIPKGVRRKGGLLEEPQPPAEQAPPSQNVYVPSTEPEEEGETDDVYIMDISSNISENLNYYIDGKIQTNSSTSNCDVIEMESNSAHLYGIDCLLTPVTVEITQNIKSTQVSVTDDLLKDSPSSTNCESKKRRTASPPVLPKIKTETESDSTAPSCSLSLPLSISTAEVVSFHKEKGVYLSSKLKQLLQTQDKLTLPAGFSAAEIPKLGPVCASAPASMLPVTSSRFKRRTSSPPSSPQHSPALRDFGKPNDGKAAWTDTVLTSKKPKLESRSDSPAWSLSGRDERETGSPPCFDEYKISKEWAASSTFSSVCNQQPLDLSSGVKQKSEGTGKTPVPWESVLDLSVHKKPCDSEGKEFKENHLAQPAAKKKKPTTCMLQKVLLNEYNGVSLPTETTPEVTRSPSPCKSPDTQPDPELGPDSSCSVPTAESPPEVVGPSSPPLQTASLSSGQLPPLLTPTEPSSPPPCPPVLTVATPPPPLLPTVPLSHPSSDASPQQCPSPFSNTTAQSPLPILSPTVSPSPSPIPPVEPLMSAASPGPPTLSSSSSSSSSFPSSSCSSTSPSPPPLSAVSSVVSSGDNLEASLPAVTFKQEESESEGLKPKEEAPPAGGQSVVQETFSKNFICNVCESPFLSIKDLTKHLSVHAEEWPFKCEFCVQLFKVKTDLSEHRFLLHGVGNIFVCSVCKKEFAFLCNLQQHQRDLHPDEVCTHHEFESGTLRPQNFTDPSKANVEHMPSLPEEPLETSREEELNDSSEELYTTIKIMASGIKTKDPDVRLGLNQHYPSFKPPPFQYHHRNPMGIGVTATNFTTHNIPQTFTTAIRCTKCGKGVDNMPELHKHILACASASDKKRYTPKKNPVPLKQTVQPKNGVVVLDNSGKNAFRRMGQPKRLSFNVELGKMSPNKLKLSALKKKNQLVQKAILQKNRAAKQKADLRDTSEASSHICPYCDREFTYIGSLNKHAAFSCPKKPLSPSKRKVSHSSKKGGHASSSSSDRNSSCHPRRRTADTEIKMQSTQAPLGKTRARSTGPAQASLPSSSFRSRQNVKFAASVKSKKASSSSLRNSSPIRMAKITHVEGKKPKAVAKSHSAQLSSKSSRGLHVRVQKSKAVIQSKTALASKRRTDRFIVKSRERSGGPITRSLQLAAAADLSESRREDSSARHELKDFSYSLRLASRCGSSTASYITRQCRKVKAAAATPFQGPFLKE

[2] = molecular target: T2, Rb from HT1080 cell extract (Homo sapiens, UniProt P06400); assay: GST-RIZ (215-462) glutathione-agarose pull-down of Rb from cell extract, anti-Rb immunoblot; assay type: binding; settings: 4 μg GST-RIZ (215-462)
T2 construct: endogenous in cells; host or cells: HT1080 cells (lysate)
T2 sequence (P06400 1-928): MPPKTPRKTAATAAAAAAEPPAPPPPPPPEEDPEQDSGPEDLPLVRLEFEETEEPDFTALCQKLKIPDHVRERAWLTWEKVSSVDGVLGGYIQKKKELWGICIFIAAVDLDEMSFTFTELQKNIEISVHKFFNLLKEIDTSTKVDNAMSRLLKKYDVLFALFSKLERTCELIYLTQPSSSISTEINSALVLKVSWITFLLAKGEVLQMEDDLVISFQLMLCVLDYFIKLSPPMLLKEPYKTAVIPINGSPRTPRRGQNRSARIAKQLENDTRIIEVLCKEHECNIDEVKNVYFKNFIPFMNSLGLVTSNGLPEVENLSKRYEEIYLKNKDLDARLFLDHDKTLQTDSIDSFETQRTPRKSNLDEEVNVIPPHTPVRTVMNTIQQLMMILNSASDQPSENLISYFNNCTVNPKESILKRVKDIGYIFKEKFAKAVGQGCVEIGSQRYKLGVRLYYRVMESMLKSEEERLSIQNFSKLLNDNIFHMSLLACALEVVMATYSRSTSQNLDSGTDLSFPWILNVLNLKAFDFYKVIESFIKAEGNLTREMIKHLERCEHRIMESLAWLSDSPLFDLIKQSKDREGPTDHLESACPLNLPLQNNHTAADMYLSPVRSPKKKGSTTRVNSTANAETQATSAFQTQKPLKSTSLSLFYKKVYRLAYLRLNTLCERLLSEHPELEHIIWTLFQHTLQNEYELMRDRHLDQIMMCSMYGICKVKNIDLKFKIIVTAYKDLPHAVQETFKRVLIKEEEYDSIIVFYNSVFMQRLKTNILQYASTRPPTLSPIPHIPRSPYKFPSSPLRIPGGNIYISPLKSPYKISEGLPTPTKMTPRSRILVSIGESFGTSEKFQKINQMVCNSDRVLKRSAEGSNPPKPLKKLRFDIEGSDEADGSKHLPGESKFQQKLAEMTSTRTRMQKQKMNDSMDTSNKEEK
Description: Rat RIZ was tested for binding to Rb in HT1080 cells (ATCC #ICCL 121). The cells were grown in DMEM supplemented with […]. Cells were lysed in ELB buffer (50 mM HEPES, pH 7.5, 250 mM NaCl, 0.1% NP-40) supplemented with 5 mM EDTA, 50 mM NaF, 1 mM Na orthovanadate, 1 mM of DTT, aprotinin, leupeptin, and PMSF. The lysate was cleared of cell debris by centrifugation at 12,000 rpm for 10 min in a microfuge.
Binding between 4 μg GST-RIZ (215-462) and Rb from HT1080 cell extract was evaluated by first mixing the two, then binding GST-RIZ and any associated Rb to glutathione-agarose beads. The beads were washed in binding buffer and the bound complexes were eluted by boiling in SDS buffer and analyzed by immunoblotting with anti-Rb antiserum. Immunoblotting was performed by standard techniques (see, for example, Harlow and Lane, supra, 1988).

56 kD fragment of Rb = molecular target: T3, 56 kD fragment of Rb (Homo sapiens, UniProt P06400); assay: binding of 35S-labeled RIZ fragments to 56 kD Rb, immunoprecipitation with anti-Rb antiserum
T3 construct: p56 Rb: 56 kD fragment of Rb from a.a. position 379-928; made in house
T3 sequence (P06400 379-928): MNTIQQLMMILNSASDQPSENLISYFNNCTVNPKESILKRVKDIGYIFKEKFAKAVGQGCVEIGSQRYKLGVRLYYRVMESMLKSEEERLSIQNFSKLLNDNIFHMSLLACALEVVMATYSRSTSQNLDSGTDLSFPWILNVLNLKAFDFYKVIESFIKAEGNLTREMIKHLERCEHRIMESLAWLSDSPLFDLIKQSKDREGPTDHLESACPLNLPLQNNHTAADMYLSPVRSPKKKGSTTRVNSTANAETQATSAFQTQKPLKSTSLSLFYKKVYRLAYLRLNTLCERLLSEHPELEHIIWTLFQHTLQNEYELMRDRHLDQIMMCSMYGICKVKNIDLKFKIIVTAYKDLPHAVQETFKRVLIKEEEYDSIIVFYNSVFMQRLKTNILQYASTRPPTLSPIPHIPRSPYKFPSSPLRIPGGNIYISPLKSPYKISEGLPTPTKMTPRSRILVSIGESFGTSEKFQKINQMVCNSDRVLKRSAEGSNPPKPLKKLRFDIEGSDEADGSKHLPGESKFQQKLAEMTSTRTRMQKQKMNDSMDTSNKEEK
Description: To characterize the interaction between RIZ and Rb, a ^35S-labeled fragment of rat RIZ from amino acid position 245-883 (RIZ (245-883)) was produced by subcloning the 1.9 kb insert of clone 7.1 into PBKS+ (Stratagene) to yield plasmid pBKS+7.1. […] The larger size obtained by SDS-PAGE is likely due to anomalous mobility of the RIZ fragment on the gel.
A 56 kD fragment of Rb produced by bacterial expression from p56Rb plasmid, as described previously (Huang et al., supra, 1991), was tested for binding to radiolabeled RIZ (245-883). Binding was detected by immunoprecipitation with an anti-Rb antiserum and Protein A-Sepharosew™ (Huang et al., supra, 1990), which is incorporated herein by reference; and Huang et al., supra, 1991) followed by SDS-PAGE and autoradiography (see Harlow and Lane, supra, 1988). The rabbit anti-Rb antiserum was produced to purified p56Rb using previously described methods (see Harlow and Lane, supra, 1988).
The amount of binding of RIZ by Rb in the immunoprecipitation reaction was dependent on the concentration of Rb added. Full binding of ^35S-labeled RIZ (245-883) was achieved by 10 nM Rb but not 3.3 nM Rb (not shown). […]
Binding between labeled RIZ (1-575) and the glycine mutant with 33 nM Rb was evaluated by immunoprecipitation with anti-Rb antiserum followed by SDS-PAGE and autoradiography.

Molecule: Nc1ncn([C@@H]2O[C@H](CO)[C@@H](O)[C@H]2O)c(=O)n1 [5-azacytidine]
effect on reduced expression of RIZ D283 transcripts [1]: unaffected

binding to 35S-labeled full length RIZ (homo-oligomer formation) (full length RIZ): lack of binding
B1: GST-RIZ (215-462): purified rat RIZ (a.a. position 215-462) fused C-terminal to glutathionine S-transferase (protein)
chain: PLASAPEQPAPLPEVGNQDAVPQVAIPLPACEPQPEVDGKQEVTDCEVNDVEEEELEEEEELEEEEEEELGEDGVEEADMPNESSAKEPEIRCEEKPEDLLEEPQSMSNEAREDSPDVTPPPHTPRAREEANGDVLETFMFPCQHCERKFATKQGLERHMHIHISTINHAFKCKYCGKRFGTQINRRRHERRHETGLKRRPSMTLQSSEDPDDGKGENVTSKDESSPPQLGQDCLILNSEKTSQEVLN
modifications: left off: a dimerising Fc or GST
notes: purified rat RIZ (a.a. position 215-462) fused C-terminal to glutathionine S-transferase
binding to Rb from HT1080 cell extract [2]: bound to the fastest migrating forms of Rb

binding to Rb in vitro (FIG. 4) (56 kD fragment of Rb): specifically binds
B2: RIZ (1-575): fragment of RIZ from amino acid position 1-575 (protein)
chain: MHQNTESVAATETLAEVPEHVLRGLPEEVRLFPSAVDKTRIGVWATKPILKGKKFGPFVGDKKKRSQVRNNVYMWEVYYPNLGWMCIDATDPEKGNWLRYVNWACSGEEQNLFPLEINRAIYYKTLKPIAPGEELLVWYNGEDNPEIAAAIEEERASARSKRSSPKSRRGKKKSHENKNKGIRTHPTQLKASELDSTFANMRGSAEGPKEEDERPLASAPEQPAPLPEVGNQDAVPQVAIPLPACEPQPEVDGKQEVTDCEVNDVEEEELEEEEELEEEEEEELGEDGVEEADMPNESSAKEPEIRCEEKPEDLLEEPQSMSNEAREDSPDVTPPPHTPRAREEANGDVLETFMFPCQHCERKFATKQGLERHMHIHISTINHAFKCKYCGKRFGTQINRRRHERRHETGLKRRPSMTLQSSEDPDDGKGENVTSKDESSPPQLGQDCLILNSEKTSQEVLNSSFVEENGEVKELHPCKYCKKVFGTHTNMRRHQRRVHERHLIPKGVRRKGGLLEEPQPPAEQAPPSQNVYVPSTEPEEEGETDDVYIMDISSNISENLNYYIDGKIQTNSSTS

Reference: patent US6468985B1, “Retinoblastoma protein-interacting zinc finger proteins” (The Burnham Institute, priority 1994, dated 2002)
